{"source": "paper PMC12129041", "about": "“Unique characteristics of autoantibodies targeting MET in patients with breast and lung cancer” (JCI Insight, 2025)", "binders": {"B1": {"name": "mAb 69B253 (antibody, V domains shown)", "VH": "EVQLVESGGALVQPGGSLRLSCAASGFTFSSYGMGWVRQAPGKGLEWVSVIIGSGGSTSYVDSVRGRFTISRDNSRNMVYLQMSSLTVDDTAVYYCAKAACGVGFCYRSHWGQGTRVTVSS", "VL": "SLSVSPGETVTLSCRASQSVSSNLAWYQHKPGQAPRLLIHDASTRATGIPVRFSGSGSGTDFTLTISSLQSEDFAVYYCQHYYNWPYGFAQGTKLEIK", "notes": "heavy chain V(D)J region; light chain VJ region; light chain constant region of the Ig expression vector; Cloned from a MET-enriched B cell of a cancer patient; detected with anti-IgG secondary antibody; source: Expi293F, cotransfected heavy and light chain vectors, purified (protein A)"}}, "key": {"[1]": {"molecular_target": "T1, extracellular portion of MET (EC-MET) (human, UniProt P08581)", "T1 construct": "MET, human, 908-amino acid extracellular portion; tags printed as HHHHHH and …; EC-MET was biotinylated with BirA for cell sorting only; also called recombinant ectodomain of MET; source: Expi293F, transient transfection, purified from supernatant (Ni-NTA); not shown: His6, C-terminal, kept; Avi-Tag, C-terminal, kept", "T1 sequence (P08581 25-932)": "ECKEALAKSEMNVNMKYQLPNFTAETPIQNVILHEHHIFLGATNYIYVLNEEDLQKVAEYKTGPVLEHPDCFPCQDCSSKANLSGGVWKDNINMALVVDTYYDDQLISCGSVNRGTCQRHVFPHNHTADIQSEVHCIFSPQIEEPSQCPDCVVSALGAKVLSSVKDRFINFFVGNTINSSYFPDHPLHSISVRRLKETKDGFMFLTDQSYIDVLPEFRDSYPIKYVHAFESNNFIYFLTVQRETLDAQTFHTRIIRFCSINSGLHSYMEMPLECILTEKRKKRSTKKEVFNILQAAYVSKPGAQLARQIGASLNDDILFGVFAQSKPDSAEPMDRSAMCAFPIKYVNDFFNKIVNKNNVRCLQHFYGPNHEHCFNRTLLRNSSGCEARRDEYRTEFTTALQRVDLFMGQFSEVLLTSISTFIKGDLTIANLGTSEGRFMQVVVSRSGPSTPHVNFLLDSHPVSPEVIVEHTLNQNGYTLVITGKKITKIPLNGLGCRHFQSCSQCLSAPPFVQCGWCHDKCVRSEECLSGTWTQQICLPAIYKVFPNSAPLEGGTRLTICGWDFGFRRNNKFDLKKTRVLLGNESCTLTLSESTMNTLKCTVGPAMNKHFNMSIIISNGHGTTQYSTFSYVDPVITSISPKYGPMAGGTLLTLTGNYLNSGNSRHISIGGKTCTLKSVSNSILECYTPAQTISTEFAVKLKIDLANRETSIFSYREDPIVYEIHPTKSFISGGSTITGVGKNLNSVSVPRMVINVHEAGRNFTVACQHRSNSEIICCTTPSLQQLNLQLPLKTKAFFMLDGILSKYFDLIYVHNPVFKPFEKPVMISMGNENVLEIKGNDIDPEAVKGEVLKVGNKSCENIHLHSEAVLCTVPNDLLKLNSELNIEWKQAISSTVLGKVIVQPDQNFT", "assay": "ELISA; plates coated with 1 μg/mL MET or SEMA in PBS overnight at 4°C; blocked with PBS, 3% BSA, 20 mM EDTA, 0.05% Tween 20; mAbs from 64 μg/mL in 4-fold dilutions, 1 h room temperature; anti-IgG-HRP, OD650", "conditions": "both partners purified"}, "[2]": {"molecular_target": "T2, SEMA, the ligand-binding domain of MET (Homo sapiens, UniProt P08581)", "T2 construct": "source: Expi293F, transient transfection, purified from supernatant (Ni-NTA); not shown: His6, C-terminal, kept; Avi-Tag, C-terminal, kept", "T2 sequence (P08581 27-515)": "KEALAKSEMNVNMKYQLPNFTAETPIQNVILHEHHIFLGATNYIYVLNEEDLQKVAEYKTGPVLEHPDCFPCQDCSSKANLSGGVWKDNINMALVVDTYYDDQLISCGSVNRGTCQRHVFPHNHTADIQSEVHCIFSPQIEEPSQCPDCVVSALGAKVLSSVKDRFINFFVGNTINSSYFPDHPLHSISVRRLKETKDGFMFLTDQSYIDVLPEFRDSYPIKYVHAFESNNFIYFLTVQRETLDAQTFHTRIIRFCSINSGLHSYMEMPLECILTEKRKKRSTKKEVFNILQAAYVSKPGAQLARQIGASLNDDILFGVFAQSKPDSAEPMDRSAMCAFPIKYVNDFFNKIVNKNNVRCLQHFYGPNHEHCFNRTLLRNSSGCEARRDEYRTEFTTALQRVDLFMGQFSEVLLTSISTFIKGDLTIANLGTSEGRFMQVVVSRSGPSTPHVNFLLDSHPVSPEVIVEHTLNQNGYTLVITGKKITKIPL", "assay": "ELISA; plates coated with 1 μg/mL MET or SEMA in PBS overnight at 4°C; blocked with PBS, 3% BSA, 20 mM EDTA, 0.05% Tween 20; mAbs from 64 μg/mL in 4-fold dilutions, 1 h room temperature; anti-IgG-HRP, OD650", "conditions": "both partners purified"}}}
{"binder": "B1", "values": [{"measurement": "binding result", "setting": "[1]", "result": "binds"}, {"measurement": "binding result", "setting": "[2]", "result": "binds"}]}
